{
  "source": "patent US11214614B2",
  "about": "“LTBP complex-specific inhibitors of TGFβ and uses thereof” (Scholar Rock, Inc., priority 2019, dated 2022)",
  "molecules": {"B1": {"name": "Ab2: TGFβ1 inhibitor test article of a four-week rat toxicology study; b152 gives same data for a context-independent TGFβ1 inhibitor antibody (antibody, V domains shown)", "VH": "QVQLVQSGAEVKKPGASVKVSCKASGYTFTSYGISWVRQAPGQGLEWMGWISAYNGNTNYAQKLQGRVTMTTDTSTSTAYMELRSLRSDDTAVYYCARAPLGNFDSWGQGTMVTVSS", "VL": "NFMLTQPHSVSESPGKTVTISCTRSSGSIASNYVQWYQQRPGSSPTTVIYEDNQRPSGVPDRFSGSIDSSSNSASLTISGLKTEDEADYYCQSYDSSNHPVVFGGGTKLTVL"}, "B2": {"name": "SR-AB31: cycle 3 light chain-optimized antibody, lineage SR-AB22; CDRs SEQ ID NO: 124-129 (antibody, V domains shown)", "VH": "QVQLVESGGGVVQPGRSLRLSCAASGFTFRSYVMHWVRQAPGKGLEWVAVISHEGSLKYYADSVKGRFTISRDNSKNTLYLQMNSLRAEDTAVYYCAVPRIAARRGGFGYWGQGTLVTVSS", "VL": "B1 VL with S28N, A30D, S31N, S96F, S97N, H99Q, P100G"}},
  "key": {"[1]": {"test_system": "TGFβ downstream tonic signaling", "assay": "TGFβ downstream tonic signaling in non-diseased rat BAL", "format": "in vivo", "text": "Indeed, data presented herein support this notion. […] Preferably, TGFβ antagonists for use in the treatment of such conditions exert their inhibitory activities only towards the disease-induced or disease-associated isoform, while preserving the function of the other isoforms that are normally expressed to mediate tonic signaling in the tissue. […] Alternatively or additionally, agents that target and block integrin-dependent activation of TGFβ may be capable of blocking only a subset of integrins responsible for disease-associated TGFβ1 activation, among numerous integrin types that are expressed by various cell types and play a role in the pathogenesis. Furthermore, even where such antagonists may selectively block integrin-mediated activation of the TGFβ1 isoform, it may be ineffective in blocking TGFβ1 activation triggered by other modes, such as protease-dependent activation. Accordingly, the isoform-specific inhibitors of TGFβ1 such as those described herein are aimed to prevent the activation step of TGFβ1 regardless of the particular mode of activation, while maintaining isoform selectivity."}, "[2]": {"settings": "in vivo; cited from earlier work"}, "[3]": {"settings": "Stauber et al. 2014, chronic (≥3 months) administration; cited from earlier work"}, "[4]": {"settings": "literature reports (Frazier et al. 2007; Stauber et al. 2014, chronic ≥3 months); cited from earlier work"}, "[5]": {"assay": "Four-week toxicology study in rats", "format": "in vivo, rat", "text": "Maximally tolerated dose (MTD): The term MTD generally refers to, in the context of safety/toxicology considerations, the highest amount of a test article (such as a TGFβ1 inhibitor) evaluated with no observed adverse effect level (NOAEL).\nTherapeutic window: The term “therapeutic window” refers to a range of doses/concentrations that produces therapeutic response without causing significant/observable/unacceptable adverse effect (e.g., within adverse effects that are acceptable or tolerable) in subjects. Therapeutic window may be calculated as a ratio between […].\nToxicity: As used herein, the term “toxicity” or “toxicities” refers to unwanted in vivo effects in patients associated with a therapy administered to the patients, such as undesirable side effects and adverse events. “Tolerability” refers to a level of toxicities associated with a therapy or therapeutic regimen, which can be reasonably tolerated by patients, without discontinuing the therapy due to the toxicities (i.e., acceptable level of toxicities). Typically, toxicity/toxicology studies are carried out in one or more preclinical models prior to clinical development to assess safety profiles of a drug candidate (e.g., monoclonal antibody therapy). […]"}, "[6]": {"test_system": "male C57BL/6J mice on CDHFD (liver fibrosis)", "assay": "Choline-deficient high fat diet (CDHFD) model of mouse NASH, liver hydroxyproline content", "format": "in vivo", "settings": "15 mg/kg twice a week i.p., weeks 4 through 12 of CDHFD", "text": "The Choline deficient high fat diet (CDHFD) is an established diet-induced model of Non-Alcoholic steatohepatitis (NASH). In this model, male C57BL/6J mice are fed a choline deficient, 0.10% Methionine, high fat diet for 12 weeks. Three to six weeks after the start of the CDHFD, activation of pro-fibrotic processes can be detected through increased expression of α-smooth muscle actin (α-SMA) protein, a marker for activation of hepatic stellate cells, and elevated tissue hydroxyproline content reflecting increased collagen synthesis and deposition (Matsumoto et. al, Int J Exp Pathol. 2013 April; 94(2):93-103).\nLTBP complex-specific antibodies were tested for their ability to inhibit and/or reduce the extent of liver fibrosis in mice in the CDHFD model as follows. An outline of the study is shown below in Table 21.\nAnimals in the test cohorts were on the CDHFD for the duration of the study. A separate cohort of mice (Group 1) were administered a regular chow diet as a study control. Antibodies SR-AB42 and SR-AB31 were administered to mice by intraperitoneal (i.p.) injection beginning at 4 weeks post start of the CDHFD. Animals were dosed at antibody test concentrations 15 mg/kg twice a week (i.e., 30 mg/kg/week) for a test duration of 8 weeks (i.e., weeks 4 through 12). […] Endpoint readout was hydroxyproline content. […]"}, "huLTBP1 proTGFβ1": {"target": "huLTBP1 proTGFβ1 (Homo sapiens, UniProt P01137+Q14766)", "sequence (P01137 30-390)": "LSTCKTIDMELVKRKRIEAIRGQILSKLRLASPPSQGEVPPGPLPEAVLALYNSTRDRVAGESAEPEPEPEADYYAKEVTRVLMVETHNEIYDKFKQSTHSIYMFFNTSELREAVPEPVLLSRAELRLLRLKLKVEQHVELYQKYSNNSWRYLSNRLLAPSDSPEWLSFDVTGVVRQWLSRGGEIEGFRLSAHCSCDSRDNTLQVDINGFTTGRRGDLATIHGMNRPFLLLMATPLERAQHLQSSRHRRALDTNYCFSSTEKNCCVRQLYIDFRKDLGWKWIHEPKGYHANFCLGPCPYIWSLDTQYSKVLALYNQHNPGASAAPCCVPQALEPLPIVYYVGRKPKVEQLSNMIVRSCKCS", "sequence (Q14766 347-1721 limits assumed)": "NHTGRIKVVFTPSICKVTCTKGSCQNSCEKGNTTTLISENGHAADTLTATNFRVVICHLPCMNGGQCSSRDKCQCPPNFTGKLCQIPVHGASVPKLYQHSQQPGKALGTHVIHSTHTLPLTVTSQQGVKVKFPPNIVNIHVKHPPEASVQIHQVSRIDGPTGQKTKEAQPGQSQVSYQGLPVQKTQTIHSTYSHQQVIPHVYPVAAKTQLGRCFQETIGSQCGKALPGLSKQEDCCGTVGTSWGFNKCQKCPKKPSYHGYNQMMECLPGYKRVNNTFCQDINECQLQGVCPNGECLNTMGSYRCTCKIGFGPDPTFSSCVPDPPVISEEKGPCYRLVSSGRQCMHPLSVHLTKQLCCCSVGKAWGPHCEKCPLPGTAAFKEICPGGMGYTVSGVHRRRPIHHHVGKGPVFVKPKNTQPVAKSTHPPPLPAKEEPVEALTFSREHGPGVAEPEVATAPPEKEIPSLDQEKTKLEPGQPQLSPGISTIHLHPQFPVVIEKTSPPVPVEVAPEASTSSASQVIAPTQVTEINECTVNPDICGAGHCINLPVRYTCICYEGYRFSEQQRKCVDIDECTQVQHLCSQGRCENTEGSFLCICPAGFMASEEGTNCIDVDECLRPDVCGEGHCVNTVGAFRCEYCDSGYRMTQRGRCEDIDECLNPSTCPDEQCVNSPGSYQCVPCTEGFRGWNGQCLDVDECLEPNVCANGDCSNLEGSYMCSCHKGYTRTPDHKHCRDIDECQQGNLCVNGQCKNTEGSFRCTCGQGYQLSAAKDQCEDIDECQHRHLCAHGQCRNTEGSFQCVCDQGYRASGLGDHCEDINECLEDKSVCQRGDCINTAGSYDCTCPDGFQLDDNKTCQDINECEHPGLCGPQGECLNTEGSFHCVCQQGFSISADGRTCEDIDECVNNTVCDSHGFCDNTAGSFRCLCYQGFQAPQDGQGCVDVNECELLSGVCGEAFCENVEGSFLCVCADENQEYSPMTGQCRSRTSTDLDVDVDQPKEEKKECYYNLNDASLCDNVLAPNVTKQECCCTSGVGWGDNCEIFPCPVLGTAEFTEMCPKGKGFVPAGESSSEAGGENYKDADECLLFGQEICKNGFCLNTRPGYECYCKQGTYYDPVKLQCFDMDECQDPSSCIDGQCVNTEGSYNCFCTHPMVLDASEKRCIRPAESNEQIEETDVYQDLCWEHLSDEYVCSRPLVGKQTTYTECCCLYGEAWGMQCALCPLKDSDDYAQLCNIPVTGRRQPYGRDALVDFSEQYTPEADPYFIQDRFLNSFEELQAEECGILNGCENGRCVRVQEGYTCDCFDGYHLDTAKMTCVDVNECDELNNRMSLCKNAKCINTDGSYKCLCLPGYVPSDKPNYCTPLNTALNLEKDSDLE", "assay": "Octet (BLI) binding, IgG captured on AHC tips, antigen at 100 nM", "settings": "Table 9, cycle 3, IgG1-agly", "procedure,_shortened": "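Antibodies were captured on anti-human Fc biosensors at 1 μg/mL (~7 nM), to a maximum response of 1 nm. Antigen complex was run at a single 100 nM in 1× kinetics buffer, shaking at 1000 rpm. Association was 3 min and dissociation 3 min (5 min in later rounds), with KD from a local, full 1:1 fit.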"}, "huLTBP3 proTGFβ1": {"target": "huLTBP3 proTGFβ1 (Homo sapiens, UniProt P01137+Q9NS15)", "sequence (P01137 30-390)": "as the sequence (P01137 30-390) above", "sequence (Q9NS15 44-1303)": "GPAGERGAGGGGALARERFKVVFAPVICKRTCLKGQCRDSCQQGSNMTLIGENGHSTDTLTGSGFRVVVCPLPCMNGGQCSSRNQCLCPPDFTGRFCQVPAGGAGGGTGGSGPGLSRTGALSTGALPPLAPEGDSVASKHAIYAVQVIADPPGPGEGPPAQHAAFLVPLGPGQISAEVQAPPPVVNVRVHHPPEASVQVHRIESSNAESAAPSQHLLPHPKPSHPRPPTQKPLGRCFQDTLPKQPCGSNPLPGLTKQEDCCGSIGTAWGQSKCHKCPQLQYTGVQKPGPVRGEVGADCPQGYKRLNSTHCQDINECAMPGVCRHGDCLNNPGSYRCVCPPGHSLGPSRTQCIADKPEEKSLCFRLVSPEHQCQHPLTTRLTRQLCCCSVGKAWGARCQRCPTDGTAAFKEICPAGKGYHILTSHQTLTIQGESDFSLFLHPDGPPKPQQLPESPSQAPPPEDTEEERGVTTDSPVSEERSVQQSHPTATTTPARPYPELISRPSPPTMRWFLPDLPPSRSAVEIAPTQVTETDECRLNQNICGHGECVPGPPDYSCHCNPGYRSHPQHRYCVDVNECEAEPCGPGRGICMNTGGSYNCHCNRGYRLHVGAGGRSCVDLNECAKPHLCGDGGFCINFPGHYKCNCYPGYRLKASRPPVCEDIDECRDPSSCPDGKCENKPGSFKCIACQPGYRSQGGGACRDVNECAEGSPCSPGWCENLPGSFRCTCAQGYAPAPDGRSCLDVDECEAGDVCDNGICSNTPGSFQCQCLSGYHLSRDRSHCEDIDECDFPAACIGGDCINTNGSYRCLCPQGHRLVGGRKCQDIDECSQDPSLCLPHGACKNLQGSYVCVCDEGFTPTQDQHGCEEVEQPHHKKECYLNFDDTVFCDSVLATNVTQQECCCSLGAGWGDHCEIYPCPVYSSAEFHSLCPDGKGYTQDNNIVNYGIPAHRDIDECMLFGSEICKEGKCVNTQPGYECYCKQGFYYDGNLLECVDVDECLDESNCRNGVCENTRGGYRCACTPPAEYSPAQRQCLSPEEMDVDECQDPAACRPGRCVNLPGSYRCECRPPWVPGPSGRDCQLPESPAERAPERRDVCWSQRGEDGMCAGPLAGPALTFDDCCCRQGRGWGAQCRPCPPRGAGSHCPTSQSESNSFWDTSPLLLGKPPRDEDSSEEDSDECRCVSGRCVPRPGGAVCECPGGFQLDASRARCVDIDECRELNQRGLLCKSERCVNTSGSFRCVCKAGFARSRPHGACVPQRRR", "assay": "Octet (BLI) binding, IgG captured on AHC tips, antigen at 100 nM", "settings": "Table 9, cycle 3, IgG1-agly", "procedure,_shortened": "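Antibodies loaded at 1 μg/mL onto anti-human Fc sensors were exposed to each TGFβ1 complex at 100 nM in kinetics buffer. Association ran 3 min; dissociation was 3 min in one protocol and 5 min in another. KD came from a 1:1 fitting model.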"}},
  "note": "Residue numbers refer to the chain shown, from its start.",
  "data": [
    {"molecule": "c1ccc(-c2nn3c(c2-c2ccnc4cc(OCCN5CCOCC5)ccc24)CCC3)nc1", "note": "[LY2109761]", "values": [
      {"measurement": "TGFβ downstream tonic signaling", "setting": "[1]", "value": "inhibit TGFβ downstream tonic signaling in non-diseased rat BAL"}
    ]},
    {"molecule": "GC1008: a “pan” TGFβ antibody capable of neutralizing all human isoforms of TGFβ", "values": [
      {"measurement": "Exposure, DN Cmax, Human", "setting": "[2]", "value": "DN Cmax ~(350 ng/mL) (ng/mL) mg"},
      {"measurement": "Exposure, Half-life, Human", "setting": "[2]", "value": "Half-life: 21.7 d"}
    ]},
    {"molecule": "Cc1cccc(-c2nn3c(c2-c2ccnc4ccc(C(N)=O)cc24)CCC3)n1", "note": "[LY2157299]", "values": [
      {"measurement": "Toxicity in dogs", "setting": "[3]", "value": "caused multiple organ toxicities involving the cardiovascular, gastrointestinal, immune, bone/cartilage, reproductive, and renal systems"},
      {"measurement": "Toxicity in rats", "setting": "[4]", "value": "caused multiple organ toxicities involving the cardiovascular, gastrointestinal, immune, bone/cartilage, reproductive, and renal systems"}
    ]},
    {"molecule": "O=C(NC1CCOCC1)c1ccc(-c2cc(-c3c[nH]nc3-c3ccccn3)ccn2)cc1", "note": "[GW788388]", "values": [
      {"measurement": "Toxicity in rats", "setting": "[4]", "value": "induced physeal dysplasia in rats"}
    ]},
    {"molecule": "B1", "values": [
      {"measurement": "MTD", "setting": "[5]", "value": "> 100", "unit": "mg/kg"},
      {"measurement": "NOAEL", "setting": "[5]; highest dose evaluated", "value": 100, "unit": "mg/kg"}
    ]},
    {"molecule": "B2", "values": [
      {"measurement": "Hydroxyproline (HYP) in liver tissue", "setting": "[6]", "value": "inhibited the increase in HYP"},
      {"measurement": "Hu LTBP1-proTGFβ1 Kon", "setting": "huLTBP1 proTGFβ1; 1:1 fit", "value": 240000, "unit": "M⁻¹ s⁻¹"},
      {"measurement": "Hu LTBP1-proTGFβ1 Koff", "setting": "huLTBP1 proTGFβ1; 5-minute dissociation", "value": "9.89e-05", "unit": "s⁻¹"},
      {"measurement": "Hu LTBP3-proTGFβ1 Kon", "setting": "huLTBP3 proTGFβ1; 1:1 fit", "value": 308000, "unit": "M⁻¹ s⁻¹"},
      {"measurement": "Hu LTBP3-proTGFβ1 Koff", "setting": "huLTBP3 proTGFβ1; 5-minute dissociation", "value": "6.81e-05", "unit": "s⁻¹"}
    ]}
  ]
}
